{
  "source": "patent US20250075002A1",
  "about": "(BEIGENE SWITZERLAND, published 2025)",
  "key": {"human CD16B-His6 (SH)": {"target": "T1, human CD16B-His6 (SH) (human, UniProt O75015 17-200)", "T1 construct": "Bought ECD fragment; also called CD16B SH allotype; human CD16B (SH); not shown: six-histidine tag (His6)", "assay": "antigen ELISA, coated Human CD16B (SH), HRP anti-human IgG"}, "cyno CD16-His6": {"target": "T2, cyno CD16-His6 (cyno, UniProt Q8SPW2 17-208)", "T2 construct": "Bought ECD fragment; not shown: six-histidine tag (His6)", "T2 sequence (Q8SPW2 17-208)": "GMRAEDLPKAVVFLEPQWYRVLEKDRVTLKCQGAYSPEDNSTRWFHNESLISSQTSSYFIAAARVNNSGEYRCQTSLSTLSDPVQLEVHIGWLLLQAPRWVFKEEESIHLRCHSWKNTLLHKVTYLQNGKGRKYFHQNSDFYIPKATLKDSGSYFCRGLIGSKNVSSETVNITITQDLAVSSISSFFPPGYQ", "assay": "antigen ELISA, coated Cyno CD16, HRP anti-human IgG; one concentration (paragraph 202 prints 1 mg/ml)"}, "[1]": {"target": "T3, human CD16A (V158) on NK92mi cells (human, UniProt P08637 17-254)", "T3 construct": "NK92mi cells co-transduced with CD16A (V158) and FcRgamma cDNAs; also called NK92mi/CD16A V158; NK92mi/CD16A", "assay": "flow cytometry on NK92mi/CD16A cells (V158 by paragraph 201)"}, "human CD16A-His6 (V158)": {"target": "T4, human CD16A-His6 (V158) (human, UniProt P08637 17-208)", "T4 construct": "Bought (Sino Biologics) ECD fragment; also called CD16A 158V; human CD16A (V158); not shown: six-histidine tag (His6)", "assay": "antigen ELISA, coated Human CD16A (V158), HRP anti-human IgG; one concentration (paragraph 202 prints 1 mg/ml)"}, "[2]": {"target": "T5, human CD16B (NA2) on NK92mi cells (human, UniProt O75015 17-200)", "T5 construct": "also called NK92mi/CD16B (NA2); NK92mi/CD16B NA2", "T5 chain": "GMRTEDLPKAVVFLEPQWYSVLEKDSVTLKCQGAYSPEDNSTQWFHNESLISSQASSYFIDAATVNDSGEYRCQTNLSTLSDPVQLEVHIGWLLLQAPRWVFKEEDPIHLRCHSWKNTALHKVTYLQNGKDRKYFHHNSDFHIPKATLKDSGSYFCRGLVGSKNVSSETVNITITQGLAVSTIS", "assay": "flow cytometry on NK92mi/CD16B (NA2) cells"}, "[3]": {"target": "T6, human CD16B (NA1) on NK92mi cells (human, UniProt O75015 17-200)", "T6 construct": "also called NK92mi/CD16B (NA1); NK92mi/CD16B NA1", "T6 chain": "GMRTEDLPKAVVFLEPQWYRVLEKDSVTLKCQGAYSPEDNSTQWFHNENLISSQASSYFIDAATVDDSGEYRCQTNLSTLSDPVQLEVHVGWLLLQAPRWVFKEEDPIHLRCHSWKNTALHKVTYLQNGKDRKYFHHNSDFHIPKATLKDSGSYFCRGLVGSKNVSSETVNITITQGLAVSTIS", "assay": "flow cytometry on NK92mi/CD16B (NA1) cells; fit not meaningful"}},
  "data": [
    {"binder": "LS21 (scFv) scFv: EVQLVQSGAEVKKPGESLKVSCKASGYTFTSYYMHWVRQAPGQGLEWMGIINPSGGSTSYAQKFQGRVTMTRDTSTSTVYMELSSLRSEDTAVYYCARGSAYYYDFADYWGQGTLVTVSSGGGGSGGGGSGGGGSQPVLTQPSSVSVAPGQTATISCGGHNIGSKNVHWYQQRPGQSPVLVIYQDNKRPSGIPERFSGSNSGNTATLTISGTQAMDEADYYCQVWDNYSVLFGGGTKLTVL", "values": [
      {"measurement": "binding result", "setting": "human CD16B-His6 (SH)", "result": "no binding"},
      {"measurement": "binding result", "setting": "cyno CD16-His6", "result": "binds"},
      {"measurement": "EC50", "setting": "[1]", "result": 1.04, "unit": "µg/mL"},
      {"measurement": "binding result", "setting": "human CD16A-His6 (V158)", "result": "binds"},
      {"measurement": "EC50", "setting": "[2]", "result": 0.136, "unit": "µg/mL"},
      {"measurement": "EC50", "setting": "[3]", "result": "~155000", "unit": "µg/mL"}
    ]}
  ]
}
